Laboratory results published in patent US6800467B1, “Polypeptides having aminopeptidase activity and nucleic acids encoding same” (Novozymes Biotech, Inc., priority 1997, dated 2004).

Key:
[1] = Kinetic parameters of aminopeptidase II for p-nitroanilides at pH 7.0 and 25° C.; type: biochemical; settings: pH 7.0, 25° C.
Method: The purified aminopeptidase II described in Example 11 was used in the following characterization.
Kinetic parameters of the aminopeptidase II were determined for several p-nitroanilides (pNA) including Leu-pNA, Gly-pNA, Ala-pNA, and Pro-pNA (Sigma Chemical Co., St. Louis, Mo., or Bachem, Torrance, Calif.). Stock solutions of 100 mg of each p-nitroanilide per ml of dimethylsulfoxide were diluted with 50 mM potassium phosphate pH 7.0 buffer to concentrations ranging from 0.0064 to 9.56 mM. […] The reaction of the aminopeptidase II with the p-nitroanilide was initiated when a 100 μl aliquot of the enzyme solution in 50 mM potassium phosphate pH 7.0 was added to 100 μl of a substrate solution in a microtiter plate well and monitored at 405 nm and 25° C. using a THERMOmax Microplate Reader (Molecular Devices Corp., Sunnyvale, Calif.).

[2] = Kinetic parameters (Lineweaver-Burke plot) at pH 7.5; type: biochemical; settings: for kcat: average molecular weight of 97 kDa used
Method: The kinetic parameters for various aminopeptidase II substrates was determined using the following protocol. Purified aminopeptidase II with an A280 of 0.581 was used. Each substrate was dissolved in DMSO to a concentration of 100 mg/ml and then diluted 50 fold in 50 mM sodium phosphate pH7.5 buffer to 2 mg/ml. The substrates included Leu-pNA, Glu-pNA (Bachem, Torrance, Calif.), and Ala-pNA. In a 96 well microtiter plate, 10 μl of purified aminopeptidase II was incubated with each substrate as follows except 50 µl of purified aminopeptidase II was incubated with Glu-pNA, and the absorbance at 405 nm was measured for 4 minutes:
1. 200 μl of 2 mg/ml substrate+0 μl of 50 mM sodium phosphate buffer pH 7.5
2. 100 μl of 2 mg/ml substrate+100 μl of 50 mM sodium phosphate buffer pH 7.5
3. 50 μl of 2 mg/ml substrate+150 μl of 50 mM sodium phosphate buffer pH 7.5
4. 25 μl of 2 mg/ml substrate+175 μl of 50 mM sodium phosphate buffer pH 7.5

[3] = substrate Ala-pNA, enzyme of Example 11
[4] = substrate Gly-pNA, enzyme of Example 11
[5] = substrate Pro-pNA, enzyme of Example 11

B1: aminopeptidase II: Recombinant Aspergillus oryzae 1568 (ATCC 20386) aminopeptidase II, 496 amino acids (SEQ ID NO:2), produced in Aspergillus oryzae or Fusarium (protein)
chain: MRSLLWASLLSGVLAGRALVSPDEFPEDIQLEDLLEGSQQLEDFAYAYPERNRVFGGKAHDDTVNYLYEELKKTGYYDVYKQPQVHLWSNADQTLKVGDEEIEAKTMTYSPSVEVTADVAVVKNLGCSEADYPSDVEGKVALIKRGECPFGDKSVLAAKAKAAASIVYNNVAGSMAGTLGAAQSDKGPYSAIVGISLEDGQKLIKLAEAGSVSVDLWVDSKQENRTTYNVVAQTKGGDPNNVVALGGHTDSVEAGPGINDDGSGIISNLVIAKALTQYSVKNAVRFLFWTAEEFGLLGSNYYVSHLNATELNKIRLYLNFDMIASPNYALMIYDGDGSAFNQSGPAGSAQIEKLFEDYYDSIDLPHIPTQFDGRSDYEAFILNGIPSGGLFTGAEGIMSEENASRWGGQAGVAYDANYHAAGDNMTNLNHEAFLINSKATAFAVATYANDLSSIPKRNTTSSLHRRARTMRPFGKRAPKTHAHVSGSGCWHSQVEA
- Km [1, 3]: 11000 µM
- Vmax [1, 3]: 1200 relative units
- Km [1, 4]: 300 µM
- Vmax [1, 4]: 1670 relative units
- Vmax ([1]; substrate Leu-pNA, enzyme of Example 11): 6400 relative units
- Km ([1]; substrate Leu-pNA, enzyme of Example 11 (produced in Aspergillus)): 7000 µM
- Km [1, 5]: 2000 µM
- Vmax [1, 5]: 120 relative units
- Km ([2]; substrate Ala-pNA, enzyme of Example 15): 1490 µM
- kcat ([2]; substrate Glu-pNA): 0.137 s⁻¹
- Km ([2]; substrate Glu-pNA, enzyme of Example 15): 1170 µM
- kcat ([2]; substrate Leu-pNA): 3.848 s⁻¹
- Km ([2]; substrate Leu-pNA, enzyme of Example 15 (produced by Fusarium)): 5780 µM
